From article PMC12354254 come the findings set out here.

Several values for one entry are separate records, joined by “and”; a condition that tells them apart may be missing. Identical values can stand only once.

The target in the assay is Brucella ovis PhyK (HWE-family histidine kinase, BOV_1602) (Brucella ovis). The experiment in a line: SEC. (In general: Size exclusion chromatography separates by hydrodynamic size, large species first.)

On to “Brucella ovis PhyK (HWE-family histidine kinase, BOV_1602) (enzyme)”, for which the stoichiometry N – broadly, a count of units in the complex or per binding partner – is 6 and 2.
